These results are taken from article PMC9963752 (Proceedings of the National Academy of Sciences of the …, 2023).

No end group written: not given here.

In one assay the test system is GRPR. The conditions noted are these: relative to PD176252 (methoxy group replaced by hydrogen); cited from earlier work.
In assay [1] the target is GRPR with alanine mutation of C93^2.57 (human, UniProt P30550 1-384, alanine mutation of C93^2.57). Description: cell-based or functional assay.
In assay [2] the target is GRPR with alanine mutation of Q120^3.30 (human, UniProt P30550 1-384, alanine mutation of Q120^3.30). Put plainly: cell-based or functional assay.

Turning to `C[C@@](Cc1c[nH]c2ccccc12)(NC(=O)Nc1ccc([N+](=O)[O-])cc1)C(=O)NCC1(c2ccccn2)CCCCC1` [PD168368], in the assay on GRPR, the “reduction for GRPR binding” value is given as 17 fold. As for VPLPAGGGTVLTKMYPRGNHWAVGHLM-NH2 [gastrin-releasing peptide], the “GRP-induced calcium mobilization in transfected CHO cells: EC50 against WT-GRPR” value in assay [1] amounted to 12 fold; in assay [2] it was 25 fold.
